Here are results for 2 substances from article PMC10015101.

Assay [1] addresses SARS-CoV-1 soluble spike ectodomain, stabilised (2P, GSAS linker, T4 fibritin trimerization motif) (SARS-CoV-1 | bacteriophage T4) (UniProt P59594). Kind of assay: SEC. (In general: In gel filtration, larger molecules generally elute earlier.)
In assay [2] the target is Rf1 soluble spike ectodomain, stabilised (2P, GSAS linker, T4 fibritin trimerization motif) (bat sarbecovirus Rf1 | bacteriophage T4) (UniProt Q0QDZ0). Description: SEC.

By stoichiometry N is commonly meant a count of units in the complex or per binding partner.

In assay [1], “SARS-CoV-1 soluble spike ectodomain, stabilised (2P, GSAS linker, T4 fibritin trimerization motif) (from UniProt P59594 14-1190) (domain or fragment)” gave a stoichiometry N of 3.

“Rf1 soluble spike ectodomain, stabilised (2P, GSAS linker, T4 fibritin trimerization motif) (from UniProt Q0QDZ0 1-1176) (domain or fragment)” yielded a stoichiometry N in assay [2] of 3.
